Patent US20240026407A1, “MODIFICATION OF SAPONINS” (GLAXOSMITHKLINE BIOLOGICALS SA, priority 2020, published 2024)

B1: 992 (protein, listed as Roseburia intestinalis)
chain: MGKIYAAKTNHITNPIGFNMDSIAFSWKVKGCRGQEQKYARIVISKNKTFTDICYDTGETELDSLSTRVEFEIQPYTRYYWKVIVTTDVEEVIESDVQFFETAKMDEPWTGRWITCDSSQERHPIFSKRIEPKKEVKSARLYICGLGLYEAYFLGENKENPKKIGDEYLTPYCNNYDRWIQYQTYDITEQAERGGVLSVLLGNGWYKGRFGFNDPEREAYYGDEWKLIAEVHIEYKDGTKDVISSDETWSVTRSNLWFSNIYDGERRDDTLPPVEESPARIAKAPKGRLMERLSLPVKVQEEMKPAELIHTPAGEDVFDLGQEITGIFQLRVNEPSGTIIRIQTGEILQDGCFYNENLRTALSEYVYVSDGMEKVIIPHFTYYGYRYVKVSGVTNLSCEDFMAIVLYSDYESIGTVETGSELVNKLISNIEWGMKGNFLDVPTDCPQRDERMGWTGDTQVFSATASYLADTYAFYRKYLYDLYQEQLLAGGMVPEIVPTFGPTKCSCAWGDAACIIPWNVYLFSGDKTILENQIESMKAWVDYIRRIDGDHHGWRQVFHYGDWLALDRTGAAANSVYGATDEAYIADIYYAASAQIVAKAAEVLGLEETRQEYHKIADRQWQVVKEEYFTATGRCAVKTQTGLILALKYHLSENEELTREMLKKLLRDNKNKLNTGFVGTPLLCNVLTDHGMTDAAYRLLLNEEYPGWLHEVKLGATTVWERWNSLDESGHVSSTGMNSLNHYSYGAILEWIFRHAAGIDVMEQSPGGKVMRISPKVNSELKYVKAVYDSATGCYQCGWEILEGNKITITVTVPFGGKAEVVLPYAPECIYEDIENPLFEAVENGICHVKAGEYEVVYEASEPLKKRYSIDSTMEELLNHPDIRAFLSQMVEVDMIPDIAYGLSLRDVAKTFAGEIKPDEAQMLDKALAKF
B2: 1003 (protein, listed as Rahnella aquatilis)
chain: MPAVIRLTLNQESALSGVQQLPVLGWEIESRNRNVRQTAYRLQISQDQDFDNILLRGEWQESECSNNIPLTELMLTSSQHYFIRVQVRDNYGETSGWSSPAQMITGVLYPHEWLADFITAETSADKDNSHATLLRKSFVLNRAQDIQSAFIHVSALGLYELYLNGHKAGEDALTPGWTSYHNHLLYQTYDVTGHLEKGENVIGAILGAGWYKGDMGFSRHRNYYGERSALISQLVINYNDGSQEIVISDESWKGQDSAILFSEIYDGEIYDARREIPGWCTKDVSGEGWRPVSLVTHEKSTLVAQGSNTVRKMAEIKPVALITTPQGDTVIDFGQNLSGWVEFRVSGKAGDEVVLRHFEVLDADGNVYLDNLRTARQRTAYVLKGEGEEIWHPHFTWQGFRFVKVEEYPGQWDLNNFTAIVLHSAMEQTGHFACSNPQLNQLHHNILWGLKGNFVDVPTDCPQRDERLGWTGDAQIFCRTASYLMQTRNFFAKWLTDLRYDQTPEGGVPHVIPDILTGYCGKDRLLSEGGTHSASAWADAAVINPWTMYLMYGDTCVLENQYASMKGWIDFMTAHAENHIWHYKLQFGDWVALDAKEGSYFGATPNDLTCTAYYAYSTQLFAKAAKVLNRTEDYDHYHALYQAIVRRFQEAFFTPSGQLAARTQTAHILALYFNLVPDEFRQRTTDTLVELLNEHDGHLVTGFVGTPYFCHALSQNGRTKEAWNLLLKEDFPSWLYQVKAGATTVWEHWDGIKPDGSMWSADMNSFNHYAYGAVGEWLYRVAAGIEADEAQPGFKHFIIKPLTGGGLSWLDTRYQSIYGAIGVRWEVSGQTVFLNVTVPANTSATVVLTDGQSVQEADGIDFARCAEGYTAEVGSGEYRIEYRLV
B3: 993 (protein)
chain: MKKLLLCLCFLAIGFLSNAKIKPTQLTCEYLKNPSVVDVLQPRLAWINVADAGERGQEQTAYQIRVASLKEKLENADLWDSGKVKDDASIRVKYDGEKLVSRQDCWWQVRVWDKNNEVSEWSEPAYWHMGLLNENDWTANWIGVPWQGEETLPKPASPAATLPGELPPPAPLFRKEFNATKQVEKAVAYVTGLGYFELYLNGEKVGDDVLVPNQTNYGKRPALTQQYIPLDDNFKEYKVMYLAYDISDQLVSGANTFGAILGNGFYNPSKHWALGYGTPRLLVQVHVAYTDGTEELIVSDESWKVSKSPILMDMVYYGEHYDARLEQDGWCSAGFDDSAWENAILRKAPEGKLVAHTAHPDKVYETLQPVRIEKMYNGNYKVDFGEEISGWVRLKNVEGPEGHKVKINYLSNNYSGDNSYIFKGEGKENYAARFNWFVFREVEIENWPGVLAPENICAEAINTYIEESAHFETSNPLFNQVNKIWKRSQTDNMHGGIASDCPHRERSPYTGDGQVACVTVMHNFDAQNFYYKWIHDMIGAQNVKTGYVPNGAPWQPGCGGGVAWGAAINIIPWEFYVHYGAVDMLEEAYEPMKEYVRYMQTWVNNEGIMNSQRVGLDGNVLQWFNLGEWVTPGDLPPDSLVHTFYFWRCADITAKTAEILGKRKEAKRNRELAETTQSAFHKCFFDAEKGTYGNAGANIFALKMGVPENEYQRVINALKANIKKNKGHLDTGIFGTQFFFEVLSENGLHELAYEAMNKKEEPGYGRWLTLGATTSWENWNTDGSHNHPMFGGGLVWLYRKLAGMQADEKNPGYRHIIFHPQPIKELEFAEYFNKTPYGKAGIKWQQTEGKLSVGVTVPVGCTATVILPGGHFLADGKAMEKVAEVQLVSQKEDELIIKVGAGNYQFSN
modifications: Draconibacterium orientale
B4: 1077 (protein, listed as Bacillus sp.)
chain: MAGRNWNASWIWGGQEESPRNEWRCFRGSFDAPASVEGPAMLHITADSRYVLFVNGEQVGRGPVRSWPKEQFYDSYDIGGQLRPGVRNTIAVLVLHFGVSNFYYLRGRGGLIAEIEADGRTLAATDAAWRTERLGGQRSNSPRMACQQGFGEVIDARELAEDWALPAFDDGGWAQARSIGPAGTAPWTSLVPRDIPFLTEEKLYPASIQSLSRVKAPKYAAALDLRNQMVPESVNHANPVSYCGYVATILTLETSGVVTLGFPTGVRGSGVWVDGVLQTEWTGVQPERYYSLNLAAGEHLVLVDITSSDHGGSSHFAIDSEAAFTLRSPAGDNGVPLATIGTFDQSEYIDHRPGRRMQTDHPDYRALPEAAPTAAALEAFASWVKPFEPSLYTEENVFGSNVWRTLAERRAVPRSVLNAILPVPEPGVLPVFEDGDCELVIDLGAERSGFIGFELEAPAGTIIDAYGVEYMREGYTQHTYGLDNTFRYICREGRQSYVSPVRRGFRYLFLTVRGNSAPVKLHEIYIRQSTYPVAEQGSFRCSDALLNATWEISRHTTRLCMEDTFVDCPSYEQVFWVGDSRNEALVNYYVFGETEIVERCLNLVPGSADETPLYLDQVPSAWSSVIPNWTFFWILACREYAAHTGNEAFAARIWPAVKHTLTHYLEHIDDSGLLNMAGWNLLDWAPIDQPNEGIVTHQNLFLVKALRDSRALAAAAGATEEADAFAARADLLAETINAVLWDEEKRAYIDCIHADGRRSDVYSMQTQVVAYLCGVAQGEREAVIEGYLSSPPPAFVQIGSPFMSFFYYEALEKAGRQTLMLDDIRRNYGQMLRYDATTCWEMYPNFAENRSNPDMLTRSHCHAWSAAPGYFLGSSILGVKRGADGWRTVDIAPQPCDLTWAEGVVPLPQGGHIAVSWEFVSAGKLKLRIEAPEDIEVNVTLPEGIEGEVTQVKYMS

Columns and labels:
Assay type in all cases: biochemical, Quillaja saponaria
[1] = Experiment 6-3: screening of rhamnosidases for derhamnosylation of saponins in crude bark extract (80%), relative % of Left, Middle and Right Peak by UV HPLC; details: CBE 80%, pH 7.4, 30 degC, 19.5 h; for Left Peak: mainly QS-17 family, negative control 27%; for Middle Peak: mainly QS-18 and desglucosyl-QS-17 family, negative control 48%; for Right Peak: mainly QS-21 family, negative control 26%
Procedure, shortened: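 Clarified lysates of expressed rhamnosidase variants were incubated with crude bark extract (pH 7.4, final 80%) at 30 degC with shaking for 19.5 h, then quenched with MeCN+2% AcOH. UV HPLC gave relative % of Left (QS-17), Middle (QS-18/desglucosyl-QS-17) and Right (QS-21) peaks.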

[2] = Experiment 6-1: specificity of rhamnosidases towards other rhamnose residues (C3 saccharide rhamnose, C28 saccharide rhamnose); details: TBE 2%, pH 7.5, 30 degC, 18 h; LCMS/MS; negative controls 0.18, 0.17
[3] = Experiment 6-1: screening of rhamnosidases for derhamnosylation of saponins in treated bark extract (2%), QS-17 2310 to QS-18 2164 (PAR %); details: TBE 2%, pH 7.5, 30 degC, 18 h; TIC peak area ratio percent, LCMS/MS; negative controls 3.061, 2.429
[4] = Experiment 6-1: screening of rhamnosidases for derhamnosylation of saponins in treated bark extract (2%), desglucosyl-QS-17 2134 to QS-21 1988 (PAR %); details: TBE 2%, pH 7.5, 30 degC, 18 h; TIC peak area ratio percent, LCMS/MS; negative controls 2.719, 2.158
[5] = Experiment 6-1: screening of rhamnosidases for derhamnosylation of saponins in treated bark extract (2%), QS-17 2296 to QS-18 2150 (PAR %); details: TBE 2%, pH 7.5, 30 degC, 18 h; TIC peak area ratio percent of rhamnosylated starting saponin to derhamnosylated product, LCMS/MS; negative controls 4.876, 5.225
[6] = Experiment 6-2: screening of rhamnosidases for derhamnosylation of saponins in treated bark extract (25%), relative % of Left, Middle and Right Peak by UV HPLC; details: TBE 25%, pH 7.4, 19.5 h; for Left Peak: mainly QS-17 family, negative control 24%; for Middle Peak: mainly QS-18 and desglucosyl-QS-17 family, negative control 50%; for Right Peak: mainly QS-21 family, negative control 26%

Molecule | Left Peak [1] [%] | Middle Peak [1] [%] | Right Peak [1] [%] | ratio PP/QS-21 [2] | Peak57 (PAR %) [3] [%] | Peak75 (PAR %) [4] [%] | QS-17 (PAR %) [5] [%] | Left Peak [6] [%] | Middle Peak [6] [%] | Right Peak [6] [%]
B1 | 21 | 49 | 30 | 0.20 | 0.000 | 0.000 | 0.000 | 7 | 62 | 31
B2 | 27 | 47 | 26 | 0.19 | 0.000 | 0.000 | 0.000 | 7 | 63 | 31
B3 | 25 | 49 | 26 | 0.18 | 1.129 | 2.211 | 3.836 | 18 | 56 | 27
B4 | 26 | 48 | 27 | 0.18 | 2.532 | 2.138 | 3.964 | 23 | 51 | 26
